Measurements reported in article PMC5958618.

target: F-actin (UniProt P68032); test: co-sedimentation

Kd	Substance
1600 nM	E40K mutant human α-tropomyosin (Tpm1.1) with the N-terminal extension Met-Ala-Ser (natural protein)
1700 nM	E62Q mutant human α-tropomyosin (Tpm1.1) with the N-terminal extension Met-Ala-Ser (natural protein)
1800 nM	wild-type human striated α-tropomyosin (Tpm1.1) with the N-terminal extension Met-Ala-Ser (natural protein)
